The source of these data is patent US20230147852A1 (SORRENTO THERAPEUTICS, published 2023).

Experiment [1] has as its target T1, Recombinant human LAG3-His (Sino Biological; catalogue No. 16498-H08H) (human, UniProt P18627 23-450).
T1 construct: also called human LAG3 His-tag protein; CD223
T1 sequence: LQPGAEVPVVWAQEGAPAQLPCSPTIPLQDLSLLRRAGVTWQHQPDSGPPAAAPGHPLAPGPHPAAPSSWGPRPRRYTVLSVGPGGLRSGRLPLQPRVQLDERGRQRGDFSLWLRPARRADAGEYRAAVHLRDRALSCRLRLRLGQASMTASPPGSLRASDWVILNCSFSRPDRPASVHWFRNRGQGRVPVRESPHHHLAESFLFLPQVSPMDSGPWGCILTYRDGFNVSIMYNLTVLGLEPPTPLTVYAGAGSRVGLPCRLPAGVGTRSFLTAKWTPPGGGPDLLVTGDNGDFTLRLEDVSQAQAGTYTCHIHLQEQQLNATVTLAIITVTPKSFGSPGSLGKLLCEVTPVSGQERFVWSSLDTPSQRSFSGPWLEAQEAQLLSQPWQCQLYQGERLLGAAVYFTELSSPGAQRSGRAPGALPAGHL
Description: SPR (Biacore), antibody captured by anti-human Fc, human LAG3-His as analyte, 1:1 model. Background: Surface plasmon resonance follows binding to a sensor surface in real time, without labels.

In experiment [2] the target is T2, Mouse LAG3 (mouse, UniProt Q61790).
T2 construct: recombinant, His-tagged, coated on a Ni-NTA plate; also called mouse LAG3-His Tag recombinant protein
T2 sequence (antigen, looked up): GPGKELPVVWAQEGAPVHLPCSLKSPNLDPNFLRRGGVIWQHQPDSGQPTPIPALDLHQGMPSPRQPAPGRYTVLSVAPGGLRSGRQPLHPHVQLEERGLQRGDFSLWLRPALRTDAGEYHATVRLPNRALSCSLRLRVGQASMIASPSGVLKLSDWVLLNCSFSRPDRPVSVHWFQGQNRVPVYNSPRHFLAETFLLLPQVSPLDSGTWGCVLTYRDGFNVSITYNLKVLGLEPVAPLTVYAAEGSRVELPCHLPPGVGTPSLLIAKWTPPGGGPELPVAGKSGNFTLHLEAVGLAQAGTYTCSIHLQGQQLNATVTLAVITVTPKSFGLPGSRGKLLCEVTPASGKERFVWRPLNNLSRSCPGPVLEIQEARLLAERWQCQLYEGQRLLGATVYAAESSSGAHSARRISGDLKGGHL
Description: […], antibody ([…]) at 2 µg/mL, […].

In experiment [3] the target is T1, Recombinant human LAG3-His (Sino …). Description: ELISA: antibody coated at 5 µg/mL, soluble human LAG3-His titrated (x-axis: Human LAG3, µg/ml), OD at 450nm. For orientation: In an ELISA, binding on a coated surface is turned into a signal by an enzyme label.
Experiment [4] addresses T3, recombinant human LAG3-Fc Tag protein (Sino Biological; catalogue no. 16498-H05H) (human, UniProt P18627).
T3 construct: recombinant, soluble
T3 sequence (fusion chain, looked up): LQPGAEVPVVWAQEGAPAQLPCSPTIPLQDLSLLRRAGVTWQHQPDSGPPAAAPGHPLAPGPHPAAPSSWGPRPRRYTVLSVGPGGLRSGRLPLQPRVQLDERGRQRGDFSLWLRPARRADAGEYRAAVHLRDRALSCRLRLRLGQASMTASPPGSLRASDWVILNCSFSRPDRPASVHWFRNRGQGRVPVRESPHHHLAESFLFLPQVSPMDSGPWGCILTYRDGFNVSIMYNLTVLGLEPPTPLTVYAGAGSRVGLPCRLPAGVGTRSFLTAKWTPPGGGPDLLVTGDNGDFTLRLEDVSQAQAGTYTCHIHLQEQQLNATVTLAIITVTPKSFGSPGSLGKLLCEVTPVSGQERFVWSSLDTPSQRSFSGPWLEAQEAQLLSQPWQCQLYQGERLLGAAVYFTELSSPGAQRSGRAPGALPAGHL
Description: ELISA: antibody coated at 5 µg/mL captures human LAG3-Fc at 2 µg/mL; how the black bars (LAG3 binding) were detected is not told.

Experiment [5] has as its target T4, human LAG3 on LAG3/NFAT-Luc reporter Jurkat cells (human, UniProt P18627).
T4 construct: on the surface of transfected Jurkat cells; also called human LAG3 expressed on Jurkat cells (BPS Biosciences; catalogue No. 71278)
T4 sequence (antigen, looked up): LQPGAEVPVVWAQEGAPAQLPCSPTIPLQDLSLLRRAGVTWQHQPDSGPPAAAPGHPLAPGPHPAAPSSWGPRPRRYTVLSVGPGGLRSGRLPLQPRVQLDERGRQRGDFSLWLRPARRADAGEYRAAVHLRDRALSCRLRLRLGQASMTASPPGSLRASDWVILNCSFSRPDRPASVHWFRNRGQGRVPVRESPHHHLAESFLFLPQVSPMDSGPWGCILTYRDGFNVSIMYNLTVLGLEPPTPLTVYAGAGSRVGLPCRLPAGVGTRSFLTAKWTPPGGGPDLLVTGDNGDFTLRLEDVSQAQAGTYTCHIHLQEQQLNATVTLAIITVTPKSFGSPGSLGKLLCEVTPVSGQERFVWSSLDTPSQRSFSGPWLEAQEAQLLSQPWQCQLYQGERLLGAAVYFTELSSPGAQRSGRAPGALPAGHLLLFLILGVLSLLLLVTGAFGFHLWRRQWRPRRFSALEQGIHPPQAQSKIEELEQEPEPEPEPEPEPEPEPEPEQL
Description: Flow cytometry on human LAG3/NFAT-Luc Jurkat cells, ΔMFI = LAG3 Jurkat minus wild-type Jurkat, AF647 anti-human IgG.

Experiment [6] deals with T1, Recombinant human LAG3-His (Sino …). Description: SPR (Biacore): antibody captured on anti-human Fc, human LAG3-His in solution.
Experiment [7] has as its target T2, Mouse LAG3. Description: ELISA: LAG3-His coated at 2 µg/mL on a Ni-NTA plate, antibody (IgG4) at 2 µg/mL, anti-human Fc-HRP, OD at 450nm.

B1: 1C5-3A6 (antibody, V domains shown)
VH: QVQLVQSGAEVKKPGASVKVSCKASGYTLTDYYIHWVRQAPGQGLEWVGWINPNSGGTNYEQKFQGRVTMTWDTSISTAYMELSRLTSDDTAVYYCAREGWSNDWYVGYYFDYWGQGTLVTVSS
VL: DIQMTQSPLSLSASVGDRVSITCRASQYIGTSLNWYEQKPGNSPKLLITGASRLQSGVPSRFSGSGSGTDFTLTINTLQPDDLATYYCHQSYDDPPTFGQGTKLEIK
notes: also called anti-LAG3 antibody 1C5-3A6
The term Kd denotes the constant that tells how readily two partners part at equilibrium. A word on the EC50 (read off the curve): it is the concentration that produces a half-maximal response. In the case of B1, the dissociation constant (Kd) in experiment [1] was 0.0643 nM. Further, in the experiment with Mouse LAG3 [2], the binding result is given as “binds”. In addition, in experiment [3], the “EC50 (read off the curve)” value was around 0.07 µg/mL.

B2: 8D9 (antibody, V domains shown)
VH: QVQLVQSGAEVRKPGSSVKVSCKASGGTFSNYAFSWVRQAPGLGLEWLGAIIPEFDTANYAQKFKDRVTITADDSTTTVYMELSSLRSEDTAVYYCASGMWDYYGSGSSIDYWGQGTLVTVSS
VL: QSVLTQPPSASGTPGQRVTISCSGSNSDIGRNPVNWYHQFPGTAPKLLIFSNSHRPSGVPDRFSGSKSGTSASLAIGGLQSDDEADYYCAAWSDSLNGYVFGTGTKLTVL
notes: also called anti-LAG3 antibody 8D9; Clone 8D9
B2: the binding result in experiment [4] was “binds”; with Mouse LAG3 [2], “no binding (tested: 2 µg/mL)”; in experiment [5] it was “binds”; in experiment [6] it was “binds”.

B3: 5C8 (antibody, V domains shown)
VH: QVQLVQSGAEVKKPGASVKVSCKASGYTFTSYGISWVRQAPGQGLEWMGWISAYNGNTNYAQKLQGRVTMTTDTSTSTAYMELRSLRSEDTAVYYCARDSGYDFEDWFDPWGQGTLVTVSS
VL: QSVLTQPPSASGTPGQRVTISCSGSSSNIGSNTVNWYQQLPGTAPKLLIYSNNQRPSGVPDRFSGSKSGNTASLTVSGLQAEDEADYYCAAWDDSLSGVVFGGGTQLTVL
notes: also called anti-LAG3 antibody 5C8
Turning to B3, the “EC50 (read off the curve)” value in experiment [3] is around 0.02 µg/mL. In the experiment with Mouse LAG3 [7], the binding result is recorded as “no binding (tested: 2 µg/mL)”.
